In patent publication US20180371033A1, “THERAPEUTIC PEPTIDES AND METHODS OF USE THEREOF” (priority 2015, published 2018):

What was measured:
[1] = Brain section autoradiography: peptide homing to ventricles and cerebral spinal fluid; assay type: in vivo, Female Harlan athymic nude mice; settings: 14C signal in sagittal/coronal brain sections, 3 hours after administration
From the text: The experiment was done in duplicates.

[2] = for Blood (densitometric signal in the heart blood) / Brain (percentage of signal in that tissue compared to the signal detected in the heart blood): 14C-radiolabeled peptide, tail vein injection, kidneys ligated, target three hours circulation
Method: This example illustrates the dosing of peptide. […] The experiment was done in duplicates.
A target dosage of 20 nmol of each peptide was administered to separate flank sarcoma A204 tumor bearing Female Harlan athymic nude mice while anesthetized. The dosage was adjusted for whole body autoradiography. […] Some animals died after receiving the peptides, possibly due to complications of the anesthesia and surgical procedure used to ligate the kidneys of each mice, or due to toxic effects of some peptides. The circulation time of each peptide varied from animal-to-animal. […] Inulin was used as a negative control, as this polysaccharide is known to not cross the BBB.
At the end of the dosing period, mice were frozen in a hexane/dry ice bath and then frozen in a block of carboxymethylcellulose. Thin, frozen sections of whole animal sagittal slices that include the brain, tumor, liver, kidney, lung, heart, spleen, pancreas, muscle, adipose, gall bladder, upper gastrointestinal track, lower gastrointestinal track, bone, bone marrow, reproductive track, eye, cartilage, stomach, skin, spinal cord, bladder, salivary gland, and other types of tissues were obtained with a microtome, allowed to dessicate in a freezer, and exposed to phosphoimager plates for about ten days.
These plates were developed, and the signal (densitometry) from each organ was normalized to the signal found in the heart blood of each animal. A signal in tissue darker than the signal expected from blood in that tissue indicates accumulation in a region, tissue, structure or cell. Fluoxetine can cross the blood brain barrier, and is a positive control. Inulin cannot cross the blood brain barrier, and is a negative control. FIG. 2 illustrates ^14C signal in the brain and other tissues for the fluoxetine (top) and inulin (bottom) control groups.
Furthermore, the brain contains approximately 3% blood. Thus when comparing the radioactivity signal per area in blood to that in the brain, a signal in the brain that is much higher than 3% of the signal in blood can be attributed to accumulation of the material in the brain through the BBB. A ratio of at least 10% diffuse signal in brain versus blood was chosen as a reference level for high penetration. The densitometric signal can also indicate high concentration within specification locations in the brain, which can indicate crossing the BBB and/or the blood CSF barrier. […] Numbers for blood indicate the densitometric signal in the heart blood. Numbers for the brain indicate the percentage of signal in that tissue compared to the signal detected in the heart blood.

[3] = assay type: in vivo, mice; settings: 14C whole body autoradiography
From the text: This example describes biodistribution of peptides.
ND indicates the peptide was not detected in that tissue.

For “GSGVPINVKCRGSRDCLDPCKKAGMRFGKCINSKCHCTP [SEQ ID NO: 34]”, the “localization of the peptide to specific structures in the brain” value [1] was “specific structures in the brain, such as ventricles and CSF”, the “Blood (densitometric signal in the heart blood)” value [2] was 6552245640 and the “Brain (percentage of signal in that tissue compared to the signal detected in the heart blood)” value [2] was 9.30%. For the same substance, the “penetration of the blood brain barrier in comparison with the negative controls” value ([2]; reference level for high penetration: at least 10% diffuse signal in brain versus blood) was “highly penetrate the blood brain barrier”, the “Adipose (percentage of signal compared to blood in the heart)” value [3] was 11.69% and the “Gall bladder (percentage of signal compared to blood in the heart)” value [3] was 35.52%. For the same substance, the “Liver (percentage of signal compared to heart blood)” value [3] was 82.37%, the “Lower GI (percentage of signal compared to blood in the heart)” value [3] was 20.73% and the “Lung (percentage of signal compared to heart blood)” value [3] was 118.19%. The “Muscle (percentage of signal compared to blood in the heart)” value [3] was 34.13%, the “Pancreas (percentage of signal compared to blood in the heart)” value [3] was 30.35% and the “Reproductive (tract; percentage of signal compared to heart blood)” value [3] was 229.69%. The “Salivary gland (percentage of signal compared to heart blood)” value [3] was 57.57%, the “Spleen (percentage of signal compared to blood in the heart)” value [3] was 54.28% and the “Upper GI (percentage of signal compared to blood in the heart)” value [3] was 216.32%.
For Inulin [reference compound], the “Blood (densitometric signal in the heart blood)” value [2] was 900918901.9, the “Brain (percentage of signal in that tissue compared to the signal detected in the heart blood)” value [2] was 3.00% and the “Adipose (percentage of signal compared to blood in the heart)” value [3] was 5.98%. For the same substance, the “Gall bladder (percentage of signal compared to blood in the heart)” value [3] was 18.65%, the “Liver (percentage of signal compared to heart blood)” value [3] was 126.76% and the “Lower GI (percentage of signal compared to blood in the heart)” value [3] was 10.92%. For the same substance, the “Lung (percentage of signal compared to heart blood)” value [3] was 242.98%, the “Muscle (percentage of signal compared to blood in the heart)” value [3] was 19.80% and the “Reproductive (tract; percentage of signal compared to heart blood)” value [3] was 129.37%. For the same substance, the “Salivary gland (percentage of signal compared to heart blood)” value [3] was 27.58% and the “Upper GI (percentage of signal compared to blood in the heart)” value [3] was 382.27%.
